Experimental data reported in patent US20230364254A1, “METHODS FOR TREATING CANCERS WITH ANTIBODY DRUG CONJUGATES (ADC) THAT BIND TO 191P4D12 PROTEINS” (priority 2020, published 2023).

Tested on: patients with locally advanced or metastatic urothelial cancer
Experiment: Same phase 2 study: safety (adverse events, NCI CTCAE v4.03)
Type: in vivo, human
From the text: Safety assessments will be based on the information collected through the safety surveillance process and will include the data from recorded adverse events (AEs) including SAEs, recording of concomitant medication, physical examination findings, cardiac monitoring, and laboratory tests.
The assessment of safety during the course of this study will consist of the surveillance and recording of AEs including SAEs, recording of concomitant medication, and measurements of protocol-specified physical examination findings, cardiac monitoring, and laboratory tests.
AE severity should be graded using the National Cancer Institute's Common Terminology Criteria for Adverse Events (NCI CTCAE), Version 4.03. These criteria are provided in the study manual.
An overview of AEs will provide a tabulation of the incidence of all AEs, treatment-emergent AEs, treatment-related AEs, Grade 3 and higher AEs. SAEs, treatment-related SAEs, deaths, and AEs leading to study treatment discontinuation. Adverse events will be defined as treatment emergent if they are newly occurring or worsened following study treatment.
AEs will be classified by system organ class and preferred tem using the Medical Dictionary for Regulatory Activities (MedDRA) and graded using NCI CTCAE, Version 4.03.
The incidence of AEs will be summarized by system organ class, preferred term, severity and relationship to study drug. In the event of multiple occurrences of the same AE in one patient, the AE will be counted once as the occurrence for the maximum grade. AEs leading to premature discontinuation of study drug will be summarized and listed in the same manner.

[1] = Total (N = 214), count (percent)
[2] = treatment-related TEAEs of interest
[3] = treatment-related TEAEs of interest, as of last follow-up
[4] = treatment-related TEAEs of interest, enfortumab vedotin 1.25 mg/kg, patients with locally advanced or metastatic urothelial cancer
[5] = treatment-related TEAEs of interest, most occurred in Cycle 1

Substance: enfortumab vedotin: Nectin-4 directed ADC: fully human anti-nectin-4 IgG1 kappa antibody (AGS-22C3) conjugated to MMAE via protease-cleavable maleimidocaproyl valine-citrulline linker
- Treatment-related AE leading to discontinuation: Multiple organ dysfunction syndrome (Total (N = 214)): 1 (0.5) n (%)
- Treatment-related AE leading to discontinuation: Muscular weakness (Total (N = 214)): 1 (0.5) n (%)
- Treatment-related AE leading to discontinuation: Overall (Total (N = 214)): 29 (13.6) n (%)
- Treatment-related AE leading to discontinuation: Peripheral motor neuropathy (Total (N = 214)): 1 (0.5) n (%)
- Treatment-related AE leading to discontinuation: Peripheral sensory neuropathy (Total (N = 214)): 12 (5.6) n (%)
- Treatment-related AE leading to discontinuation: Pneumonitis (Total (N = 214)): 1 (0.5) n (%)
- Treatment-related AE leading to discontinuation: Stevens-Johnson syndrome (Total (N = 214)): 1 (0.5) n (%)
- Treatment-related TEAEs (Total (N = 214)): 203 (94.9) n (%)
- Treatment-related TEAEs (all grades): Alopecia (Total (N = 214)): 107 (50.0) n (%)
- Treatment-related TEAEs (all grades): Anaemia (Total (N = 214)): 49 (22.9) n (%)
- Treatment-related TEAEs (all grades): Aspartate aminotransferase increased (Total (N = 214)): 24 (11.2) n (%)
- Treatment-related TEAEs (all grades): Decreased appetite (Total (N = 214)): 84 (39.3) n (%)
- Treatment-related TEAEs (all grades): Diarrhoea (Total (N = 214)): 61 (28.5) n (%)
- Treatment-related TEAEs (all grades): Dry eye (Total (N = 214)): 36 (16.8) n (%)
- Treatment-related TEAEs (all grades): Dry skin (Total (N = 214)): 46 (21.5) n (%)
- Treatment-related TEAEs (all grades): Dysgeusia (Total (N = 214)): 71 (33.2) n (%)
- Treatment-related TEAEs (all grades): Fatigue (Total (N = 214)): 92 (43.0) n (%)
- Treatment-related TEAEs (all grades): Lacrimation increased (Total (N = 214)): 30 (14.0) n (%)
- Treatment-related TEAEs (all grades): Nausea (Total (N = 214)): 70 (32.7) n (%)
- Treatment-related TEAEs (all grades): Neutropenia (Total (N = 214)): 24 (11.2) n (%)
- Treatment-related TEAEs (all grades): Oedema peripheral (Total (N = 214)): 25 (11.7) n (%)
- Treatment-related TEAEs (all grades): Overall (Total (N = 214)): 203 (94.9) n (%)
- Treatment-related TEAEs (all grades): Peripheral sensory neuropathy (Total (N = 214)): 92 (43.0) n (%)
- Treatment-related TEAEs (all grades): Pruritus (Total (N = 214)): 59 (27.6) n (%)
- Treatment-related TEAEs (all grades): Rash maculo-papular (Total (N = 214)): 55 (25.7) n (%)
- Treatment-related TEAEs (all grades): Vomiting (Total (N = 214)): 26 (12.1) n (%)
- Treatment-related TEAEs (all grades): Weight decreased (Total (N = 214)): 52 (24.3) n (%)
- Treatment-related TEAEs leading to death (Total (N = 214)): 3 (1.4) n (%)
- Treatment-related TEAEs leading to treatment discontinuation (Total (N = 214)): 29 (13.6) n (%)
- Treatment-related TEAEs ≥Grade 3: Acute kidney injury (Total (N = 214)): 5 (2.3) n (%)
- Treatment-related TEAEs ≥Grade 3: Amylase increased (Total (N = 214)): 6 (2.8) n (%)
- Treatment-related TEAEs ≥Grade 3: Anaemia (Total (N = 214)): 14 (6.5) n (%)
- Treatment-related TEAEs ≥Grade 3: Aspartate aminotransferase increased (Total (N = 214)): 6 (2.8) n (%)
- Treatment-related TEAEs ≥Grade 3: Decreased appetite (Total (N = 214)): 6 (2.8) n (%)
- Treatment-related TEAEs ≥Grade 3: Diarrhoea (Total (N = 214)): 8 (3.7) n (%)
- Treatment-related TEAEs ≥Grade 3: Fatigue (Total (N = 214)): 14 (6.5) n (%)
- Treatment-related TEAEs ≥Grade 3: Febrile neutropenia (Total (N = 214)): 6 (2.8) n (%)
- Treatment-related TEAEs ≥Grade 3: Hyperglycaemia (Total (N = 214)): 10 (4.7) n (%)
- Treatment-related TEAEs ≥Grade 3: Hyponatraemia (Total (N = 214)): 6 (2.8) n (%)
- Treatment-related TEAEs ≥Grade 3: Lipase increased (Total (N = 214)): 10 (4.7) n (%)
- Treatment-related TEAEs ≥Grade 3: Neutropenia (Total (N = 214)): 18 (8.4) n (%)
- Treatment-related TEAEs ≥Grade 3: Neutrophil count decreased (Total (N = 214)): 16 (2.8) n (%)
- Treatment-related TEAEs ≥Grade 3: Overall (Total (N = 214)): 119 (55.6) n (%)
- Treatment-related TEAEs ≥Grade 3: Peripheral sensory neuropathy (Total (N = 214)): 5 (2.3) n (%)
- Treatment-related TEAEs ≥Grade 3: Pruritus (Total (N = 214)): 5 (2.3) n (%)
- Treatment-related TEAEs ≥Grade 3: Rash erythematous (Total (N = 214)): 6 (2.8) n (%)
- Treatment-related TEAEs ≥Grade 3: Rash maculo-papular (Total (N = 214)): 12 (5.6) n (%)
- Treatment-related grade 3-5 TEAEs (Total (N = 214)): 119 (55.6) n (%)
- Treatment-related serious TEAEs (Total (N = 214)): 39 (18.2) n (%)
- TEAEs leading to death (excluding disease progression): Acute kidney injury [1]: 2 (0.9)
- TEAEs leading to death (excluding disease progression): Acute respiratory failure [1]: 1 (0.5)
- TEAEs leading to death (excluding disease progression): Cardiac disorder [1]: 1 (0.5)
- TEAEs leading to death (excluding disease progression): Metabolic acidosis [1]: 1 (0.5)
- TEAEs leading to death (excluding disease progression): Multiple organ dysfunction syndrome [1]: 1 (0.5)
- TEAEs leading to death (excluding disease progression): Overall [1]: 9 (4.2)
- TEAEs leading to death (excluding disease progression): Pneumonia aspiration [1]: 1 (0.5)
- TEAEs leading to death (excluding disease progression): Sepsis [1]: 2 (0.9)
- Discontinuation due to treatment-related peripheral neuropathy (cohort 1): 6%
- Discontinuation rate due to treatment-related AEs (cohort 1): 12%
- Grade 3 or Grade 4 treatment-related TEAE: anemia (cohort 1): 7%
- Grade 3 or Grade 4 treatment-related TEAE: fatigue (cohort 1): 6%
- Grade 3 or Grade 4 treatment-related TEAE: neutropenia (cohort 1): 8%
- SAE (unrelated and related): cellulitis (cohort 1): 4.8%
- SAE (unrelated and related): urinary tract infection (cohort 1): 4.8%
- cases of Stevens-Johnson Syndrome reported (cohort 1): One
- related SAE: febrile neutropenia (cohort 1): 4%
- subjects with a Grade 3 or Grade 4 treatment-related TEAE (cohort 1): 54%
- deaths assessed as treatment-related (cohort 1, interstitial lung disease): one and One
- Discontinuation due to treatment-related peripheral neuropathy (cohort 2): 4.5%
- Discontinuation rate due to treatment-related AEs (cohort 2): 15.7%
- SAE (unrelated and related): acute kidney injury (cohort 2): 10.1%
- deaths assessed as treatment-related by investigators (cohort 2): Four
- related SAE: acute kidney injury (cohort 2): 3.4%
- subjects with a treatment-related TEAE greater than or equal to Grade 3 (cohort 2): 55.1%
- treatment-related TEAE ≥Grade 3: fatigue (cohort 2): 6.7%
- treatment-related TEAE ≥Grade 3: neutropenia (cohort 2): 9%
- treatment-related TEAE ≥Grade 3: rash maculo-popular (cohort 2): 7.9%
- Hyperglycemia, >Grade 3 [2]: 6%
- Peripheral Neuropathy, >Grade 3 [2]: 8%
- Peripheral Neuropathy, Median Onset [2]: 2.6 months
- Skin Reactions, >Grade 3 [2]: 17%
- Hyperglycemia, Resolution/improvement [3]: 89%
- Peripheral Neuropathy, Resolution/improvement [3]: 54%
- Skin Reactions, Resolution/improvement [3]: 80%
- Hyperglycemia, Any grade [4]: 10%
- Peripheral Neuropathy, Any grade [4]: 56%
- Skin Reactions, Any grade [4]: 61%
- Hyperglycemia, Median Onset [5]: 0.5ª months
- Skin Reactions, Median Onset [5]: 0.5ª months
